Laboratory results published in the supplement of paper PMC10567573.

B1: WDFY1 (parent)
chain: LLIPKEDGVITASEDRTIRVWLKR
B2: SLC2A12 (parent)
chain: LTLVFFVQITGQPNILFYASTVLK

Variants of: B1
Assay: protein stability index of a GFP-peptide fusion (GPS, HEK-293T) (PSI 1-6); higher = more stable
Details: c terminus: a fixed tail appended
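Further: lentivirally expressed fusions sorted by FACS into six bins by GFP to DsRed ratio, PSI derived from sequencing read proportions per bin multiplied by bin number.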

Variant	protein stability index
LLIPKEDGVITASEDRTITVWLKR [R19T]	1.7
LLIPKEDGVITASEDRTIWVWLKR [R19W]	1.71
LLIPKEDGVITASEDRTINVWLKR [R19N]	1.83
LLIPKEDGVITASEDRTIAVWLKR [R19A]	2.03
LLIPKEDGVITASEDRTIEVWLKR [R19E]	1.92
LLIPKEDGVITASEDRTIGVWLKR [R19G]	1.8
LLIPKEDGVITASEDRTILVWLKR [R19L]	1.31
LLIPKEDGVITASEDRTIPVWLKR [R19P]	2.45
LLIPKEDGVITASEDRTISVWLKR [R19S]	1.91
LLIPKEDGVITASEDRTIVVWLKR [R19V]	2.21
LLIPKEDGVITASEDRTIDVWLKR [R19D]	2.28
LLIPKEDGVITASEDRTIKVWLKR [R19K]	2.09
LLIPKEDGVITASEDRTIYVWLKR [R19Y]	2.66
LLIPKEDGVITASEDRTIMVWLKR [R19M]	2.44
LLIPKEDGVITASEDRTICVWLKR [R19C]	2.5
LLIPKEDGVITASEDRTTRVWLKR [I18T]	2.89
LLIPKEDGVITASEDRTPRVWLKR [I18P]	3.15
LLIPKEDGVITASEDRTRRVWLKR [I18R]	3.55
LLIPKEDGVITASEDRTMRVWLKR [I18M]	1.76
LLIPKEDGVITASEDRTKRVWLKR [I18K]	1.74
LLIPKEDGVITASEDRTCRVWLKR [I18C]	2.07
LLIPKEDGVITASEDRTERVWLKR [I18E]	2.52
LLIPKEDGVITASEDRTLRVWLKR [I18L]	2.29
LLIPKEDGVITASEDRTQRVWLKR [I18Q]	3.97
LLIPKEDGVITASEDRTGRVWLKR [I18G]	2.93

Variant	protein stability index
LLIPKEDGVITASEDRTHRVWLKR [I18H]	2.34
LLIPKEDGVITASEDRTVRVWLKR [I18V]	2.61
LLIPKEDGVITASEDRTSRVWLKR [I18S]	2.94
LLIPKEDGVITASEDRTYRVWLKR [I18Y]	2.04
LLIPKEDGVITASEDRTIRVWHKR [L22H]	2.75
LLIPKEDGVITASEDRTIRVWKKR [L22K]	2.91
LLIPKEDGVITASEDRTIRVWPKR [L22P]	4.22
LLIPKEDGVITASEDRTIRVWFKR [L22F]	2.15
LLIPKEDGVITASEDRTIRVWEKR [L22E]	3.61
LLIPKEDGVITASEDRTIRVWNKR [L22N]	2.77
LLIPKEDGVITASEDRTIRVWCKR [L22C]	2.48
LLIPKEDGVITASEDRTIRVWSKR [L22S]	2.79
LLIPKEDGVITASEDRTIRVWIKR [L22I]	2.56
LLIPKEDGVITASEDRTIRVWYKR [L22Y]	2.83
LLIPKEDGVITASEDRTIRVWTKR [L22T]	2.54
LLIPKEDGVITASEDRTIRVWVKR [L22V]	2.17
LLIPKEDGVITASEDRTIRVWRKR [L22R]	3.11
LLIPKEDGVITASEDRTIRVWMKR [L22M]	3.01
LLIPKEDGVITASEDRNIRVWLKR [T17N]	2.77
LLIPKEDGVITASEDRIIRVWLKR [T17I]	1.61
LLIPKEDGVITASEDRVIRVWLKR [T17V]	1.71
LLIPKEDGVITASEDRGIRVWLKR [T17G]	1.39
LLIPKEDGVITASEDREIRVWLKR [T17E]	1.81
LLIPKEDGVITASEDRMIRVWLKR [T17M]	1.73
LLIPKEDGVITASEDRFIRVWLKR [T17F]	2.12

Variant	protein stability index
LLIPKEDGVITASEDRSIRVWLKR [T17S]	1.8
LLIPKEDGVITASEDRRIRVWLKR [T17R]	2.29
LLIPKEDGVITASEDRHIRVWLKR [T17H]	3.16
LLIPKEDGVITASEDRWIRVWLKR [T17W]	2.16
LLIPKEDGVITASEDRLIRVWLKR [T17L]	1.82
LLIPKEDGVITASEDRYIRVWLKR [T17Y]	1.33
LLIPKEDGVITASEDRPIRVWLKR [T17P]	2.51
LLIPKEDGVITASEDRQIRVWLKR [T17Q]	2.02
LLIPKEDGVITASEDRTIRLWLKR [V20L]	2.29
LLIPKEDGVITASEDRTIRSWLKR [V20S]	2.15
LLIPKEDGVITASEDRTIRIWLKR [V20I]	2.64
LLIPKEDGVITASEDRTIRDWLKR [V20D]	2.52
LLIPKEDGVITASEDRTIRYWLKR [V20Y]	1.87
LLIPKEDGVITASEDRTIREWLKR [V20E]	1.73
LLIPKEDGVITASEDRTIRHWLKR [V20H]	2.1
LLIPKEDGVITASEDRTIRPWLKR [V20P]	2.44
LLIPKEDGVITASEDRTIRRWLKR [V20R]	1.64
LLIPKEDGVITASEDRTIRCWLKR [V20C]	2.39
LLIPKEDGVITASEDRTIRKWLKR [V20K]	2.41
LLIPKEDGVITASEDRTIRWWLKR [V20W]	1.72
LLIPKEDGVITASEDRTIRTWLKR [V20T]	2.95
LLIPKEDGVITASEDRTIRMWLKR [V20M]	1.66
LLIPKEDGVITASEDRTIRVQLKR [W21Q]	4.25
LLIPKEDGVITASEDRTIRVDLKR [W21D]	3.87
LLIPKEDGVITASEDRTIRVVLKR [W21V]	3.07

Variant	protein stability index
LLIPKEDGVITASEDRTIRVFLKR [W21F]	3.61
LLIPKEDGVITASEDRTIRVCLKR [W21C]	3.44
LLIPKEDGVITASEDRTIRVELKR [W21E]	3.37
LLIPKEDGVITASEDRTIRVMLKR [W21M]	2.06
LLIPKEDGVITASEDRTIRVTLKR [W21T]	2.46
LLIPKEDGVITASEDRTIRVILKR [W21I]	3.04
LLIPKEDGVITASEDRTIRVHLKR [W21H]	3.17
LLIPKEDGVITASEDRTIRVNLKR [W21N]	3.33
LLIPKEDGVITASEDRTIRVSLKR [W21S]	2.8
LLIPKEDGVITASEDRTIRVRLKR [W21R]	2.77
LLIPKEDGVITASEDRTIRVALKR [W21A]	3.07
LLIPKEDGVITASEDRTIRVLLKR [W21L]	2.78
LLIPKEDGVITASEDRTIRVWLKV [R24V]	1.69
LLIPKEDGVITASEDRTIRVWLKF [R24F]	2.44
LLIPKEDGVITASEDRTIRVWLKE [R24E]	2.48
LLIPKEDGVITASEDRTIRVWLKM [R24M]	1.53
LLIPKEDGVITASEDRTIRVWLKD [R24D]	3.09
LLIPKEDGVITASEDRTIRVWLKN [R24N]	2.34
LLIPKEDGVITASEDRTIRVWLKP [R24P]	2.07
LLIPKEDGVITASEDRTIRVWLKK [R24K]	2.08
LLIPKEDGVITASEDRTIRVWLKS [R24S]	2.18
LLIPKEDGVITASEDRTIRVWLKY [R24Y]	2.07
LLIPKEDGVITASEDRTIRVWLKW [R24W]	2.01
LLIPKEDGVITASEDRTIRVWLKI [R24I]	3.32
LLIPKEDGVITASEDRTIRVWLKH [R24H]	2.03

Variant	protein stability index
LLIPKEDGVITASEDRTIRVWLKA [R24A]	1.84
LLIPKEDGVITASEDRTIRVWLKQ [R24Q]	2.71
LLIPKEDGVITASEDRTIRVWLKG [R24G]	3.37
LLIPKEDGVITASEDRTIRVWLKL [R24L]	1.83
LLIPKEDGVITASEDRTIRVWLNR [K23N]	2.63
LLIPKEDGVITASEDRTIRVWLMR [K23M]	1.76
LLIPKEDGVITASEDRTIRVWLVR [K23V]	2.28
LLIPKEDGVITASEDRTIRVWLLR [K23L]	2.44
LLIPKEDGVITASEDRTIRVWLWR [K23W]	2.13
LLIPKEDGVITASEDRTIRVWLSR [K23S]	2.1
LLIPKEDGVITASEDRTIRVWLAR [K23A]	1.79
LLIPKEDGVITASEDRTIRVWLER [K23E]	2.9
LLIPKEDGVITASEDRTIRVWLCR [K23C]	2.24
LLIPKEDGVITASEDRTIRVWLIR [K23I]	2.1
LLIPKEDGVITASEDRTIRVWLTR [K23T]	2.62
LLIPKEDGVITASEDRTIRVWLHR [K23H]	1.7
LLIPKEDGVITASEDRTIRVWLGR [K23G]	1.83
LLIPKEDGVITASEDRTIRVWLRR [K23R]	2.74
LLIPKEDGVITASEDRTIRVWLFR [K23F]	3.36
LLIPKEDGVITASEDRTIRVWLQR [K23Q]	1.4
LLIPKEDGVITASEDRTIRVWLPR [K23P]	2.15
LLIPKEDGVITASEDRTIRVWLDR [K23D]	2.2

Variants of: B2
Assay: as above
Details: c terminus: a fixed tail appended

Variant	protein stability index
LTLVFFVQITGQINILFYASTVLK [P13I]	2.72
LTLVFFVQITGQVNILFYASTVLK [P13V]	3.35
LTLVFFVQITGQKNILFYASTVLK [P13K]	2.67
LTLVFFVQITPQPNILFYASTVLK [G11P]	3.28
LTLVFFVQITQQPNILFYASTVLK [G11Q]	4.06
LTLVFFVQITNQPNILFYASTVLK [G11N]	3.96
LTLVFFVQITSQPNILFYASTVLK [G11S]	2.87
LTLVFFVQITGQPNIDFYASTVLK [L16D]	2.58
LTLVFFVQITGQPNIMFYASTVLK [L16M]	3.19
LTLVFFVQITGQPNILFYAFTVLK [S20F]	4.03
LTLVFFVQITGQPNILFYAATVLK [S20A]	2.52
LTLVFFVQITGQPNILFYAGTVLK [S20G]	3.23
LTLVFFVQITGQPNILFYAWTVLK [S20W]	4.76
LTLNFFVQITGQPNILFYASTVLK [V4N]	2.73
LTLPFFVQITGQPNILFYASTVLK [V4P]	2.67
LTLSFFVQITGQPNILFYASTVLK [V4S]	2.54
LTLHFFVQITGQPNILFYASTVLK [V4H]	3.15
LTLMFFVQITGQPNILFYASTVLK [V4M]	2.09
LTLVFFVQITGQPNILFYASTVLE [K24E]	3.5
LTLVFFVQITGQPNILFYASTVLH [K24H]	2.21
LTLVFFVQITGQPNILFYASTVLT [K24T]	2.2
LTLVFFVQITGQPNILFYASTVLY [K24Y]	4.23

Variant	protein stability index
LTLVFFVQITGQPNILFYASTVLA [K24A]	2.9
LSLVFFVQITGQPNILFYASTVLK [T2S]	3.26
LTYVFFVQITGQPNILFYASTVLK [L3Y]	2.54
LTIVFFVQITGQPNILFYASTVLK [L3I]	3.43
LTTVFFVQITGQPNILFYASTVLK [L3T]	4.46
LTLVFFVQITGQPNILFYASWVLK [T21W]	3.97
LTLVFFVQITGQPNILFYASNVLK [T21N]	3.31
LTLVFFVQITGQPNILFYASFVLK [T21F]	3.22
LTLVTFVQITGQPNILFYASTVLK [F5T]	1.96
LTLVSFVQITGQPNILFYASTVLK [F5S]	1.66
LTLVPFVQITGQPNILFYASTVLK [F5P]	3.32
LTLVFFVQITGQPNILHYASTVLK [F17H]	3.19
LTLVFFVQITGQPNILWYASTVLK [F17W]	3
LTLVFFVQISGQPNILFYASTVLK [T10S]	1.67
LTLVFFVQIAGQPNILFYASTVLK [T10A]	3.42
LTLVFVVQITGQPNILFYASTVLK [F6V]	3.64
LTLVFDVQITGQPNILFYASTVLK [F6D]	2.69
LTLVFFVQITGQPMILFYASTVLK [N14M]	2.01
LTLVFFVQITGQPCILFYASTVLK [N14C]	1.99
LTLVFFVQITGQPFILFYASTVLK [N14F]	3.6
LTLVFFVQITGQPYILFYASTVLK [N14Y]	1.5
LTLVFFVQITGQPLILFYASTVLK [N14L]	3.78

Variant	protein stability index
LTLVFFVQITGYPNILFYASTVLK [Q12Y]	2.33
LTLVFFVQITGTPNILFYASTVLK [Q12T]	3.22
LTLVFFVQITGKPNILFYASTVLK [Q12K]	3.74
LTLVFFVQITGIPNILFYASTVLK [Q12I]	2.73
LTLVFFVQITGQPNILFYASTVEK [L23E]	2.83
LTLVFFVQITGQPNILFYASTVMK [L23M]	3.81
LTLVFFVQITGQPNILFYASTVNK [L23N]	2.74
LTLVFFVQLTGQPNILFYASTVLK [I9L]	5.05
LTLVFFVQNTGQPNILFYASTVLK [I9N]	3.06
LTLVFFVQWTGQPNILFYASTVLK [I9W]	3.12
LTLVFFVQTTGQPNILFYASTVLK [I9T]	3.18
LTLVFFVQITGQPNELFYASTVLK [I15E]	2.91
LTLVFFVQITGQPNCLFYASTVLK [I15C]	2.48
LTLVFFVQITGQPNWLFYASTVLK [I15W]	2.63
LTLVFFVFITGQPNILFYASTVLK [Q8F]	3.87
LTLVFFVQITGQPNILFYASTNLK [V22N]	2.78
LTLVFFVQITGQPNILFYASTSLK [V22S]	1.93
LTLVFFVQITGQPNILFYASTYLK [V22Y]	3.57
LTLVFFVQITGQPNILFYASTPLK [V22P]	3.9
LTLVFFVQITGQPNILFKASTVLK [Y18K]	2.6
LTLVFFVQITGQPNILFTASTVLK [Y18T]	2.31
LTLVFFVQITGQPNILFEASTVLK [Y18E]	2.04
